Measurements from US20240415889A1 (published 2024).

B1: IgG Clone #2 (1B2-6, IgG1-LALA-PG) (antibody, V domains shown)
VH: EVQLVESGGGLVKPGGSLRLSCAASGFTFSGYYMSWIRQAPGKGLEWLAYISNSGRTIYYADSVKGRFTISRDNSNSSLYLQMNSLRAEDTAVYYCARGFYMDAWGKGTTVTVSS
VL: DIQMTQSPSSLSASVGDRVTITCRASQSISSYLNWYQQKPGKAPKLLIYAASSLQSGVPSRFSGSGSGTDFTLTISSLQPEDFGVYYCQYYGISPPFTFGPGTKVDIKR
B2: IgG Clone #1 (1B2, IgG1-LALA-PG) (antibody, V domains shown)
VH: QVQLVESGGGLVKPGGSLRLSCAASGFTFSDYYMSWIRQAPGKGLEWVSYISSSGSTIYYADSVKGRFTISRDNAKNSLYLQMNSLRAEDTAVYYCARGFYMDAWGKGTTVTVSS
VL: DIQMTQSPSSLSASVGDRVTITCRASQSISSYLNWYQQKPGKAPKLLIYAASSLQSGVPSRFSGSGSGTDFTLTISSLQPEDFGVYYCQYYGISPPFTFGPGTKVDIKR

Legend:
[1] = target: T1, single chain CD94/NKG2A-Fc (CD94/NKG2A-IgG1 fusion polypeptide); test: ELISA; FIG. 27
[2] = target: T1, single chain CD94/NKG2A-Fc …; test: competitive ELISA (HLA-E tetramer)
[3] = target: T1, single chain CD94/NKG2A-Fc …; test: BLI
[4] = target: T1, single chain CD94/NKG2A-Fc …; test: competitive ELISA (HLA-E tetramer); FIG. 26

T1 sequence (chain, as listed by the source): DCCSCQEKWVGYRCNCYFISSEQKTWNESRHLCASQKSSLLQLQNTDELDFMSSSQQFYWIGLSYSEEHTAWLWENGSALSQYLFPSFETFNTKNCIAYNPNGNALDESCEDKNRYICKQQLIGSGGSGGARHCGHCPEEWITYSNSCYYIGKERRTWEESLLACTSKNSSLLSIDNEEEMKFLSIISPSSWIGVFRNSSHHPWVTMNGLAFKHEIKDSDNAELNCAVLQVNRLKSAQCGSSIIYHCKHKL

Row | Binder | EC50 [1] | IC50 [2] | Kd [3] | IC50 [4]
1 | B1 | 0.64 nM | 1.4 nM | – | –
2 | B2 | 1.6 nM | 9.6 nM | 1.14 nM | 20 nM
